{"source": "patent US10149824B2", "about": "“Reverse hexagonal mesophases (HII) and uses thereof” (YISSUM RESEARCH DEVELOPMENT COMPANY OF THE HEBREW …, priority 2009, dated 2018)", "molecules": {"B1": {"name": "myoglobin: intermediate sized protein released from cubic phase (protein, UniProt P68082 2-154, looked up)", "Myoglobin": "GLSDGEWQQVLNVWGKVEADIAGHGQEVLIRLFTGHPETLEKFDKFKHLKTEAEMKASEDLKKHGTVVLTALGGILKKKGHHEAELKPLAQSHATKHKIPIKYLEFISDAIIHVLHSKHPGDFGADAQGAMTKALELFRNDIAAKYKELGFQG"}}, "key": {"[1]": {"assay_type": "in vitro ADME", "from_the_text": "FIG. 24 presents the cumulative transdermal transport of 1 wt % desmopressin, (□) via water solution, (Δ) via HII mesophase.\nThe applicability and efficiency the HII mesophase as carriers for a transdermal delivery of desmopressin as model peptide drug was studied. Such delivery was especially relevant since the high hydrophilicity of this peptide was the main reason for its uncontrolled fast release when used without a proper carrier.\nIn the case of bulk hexagonal mesophase, reduced values of steady-state flux were obtained for the drug and its permeability coefficients through the skin, as compared to a water solution. In other words, the peptide molecules penetrated more easily and freely through the skin from water solution, than from hexagonal phase vehicles. […] The drug probably accumulated in microfissures and in a three-dimensional network of thin threads of the skin."}, "[2]": {"test": "ATR-FTIR secondary structure analysis of LSZ (amide I' band) as a function of pH", "assay_type": "physicochemical", "experimental": "The spectra were recorded with 50 scans, with spectral resolution of 2 cm^−1, at room temperature."}, "[3]": {"test": "ATR-FTIR secondary structure of LSZ under urea denaturation", "assay_type": "physicochemical", "from_the_text": "The α-helix to β-sheet transition in proteins is highly important for understanding their folding and biological functions. It is recognized that the α→β transition is probably responsible for several conformational diseases, such as Alzheimer disease, where the α-helical forms are normal and the β-sheet forms are amyloidogenic. Urea is an accepted denaturating agent, which may act in several molecular mechanisms. These possible pathways include direct interactions of urea with the protein, indirect effects by decreasing water-water interactions and hydrogen bond strength, and allowing the exposure of nonpolar groups of the protein to the solvent and combinations thereof.\nThe β-sheet formation was detected by FTIR analysis at 1620 cm^−1 and it was associated with aggregation of the protein, caused by denaturation, in accordance with the literature. In contrast, within the hexagonal mesophase the α-helical conformation stayed intact up to 4M of urea."}, "[4]": {"test": "ATR-FTIR secondary structure of LSZ as a function of temperature", "assay_type": "physicochemical", "experimental": "Proteins in general are known for their low stability at high temperatures.\nFurther temperature increase confirmed the diverse denaturation mechanism. Up to 73° C., the α-helix and the random coil contents decreased in favor of γ-turn formation."}, "[5]": {"settings": "cubic phase; cited from earlier work"}, "[6]": {"test": "ATR-FTIR conformational stability of calcitonin in HII mesophase", "assay_type": "physicochemical", "from_the_text": "In order to overcome this problem, calcitonin was solubilized into the reverse hexagonal mesophase of the invention, as disclosed herein. Transition from random coil, which is characteristic to the stable and soluble state of the peptide to α helix and mainly β-sheet, which are responsible for the unfavorable aggregation, was detected using ATR-FTIR (FIG. 31). It is well documented that calcitonin is extremely unstable in aqueous solutions, which is reflected by a significant decrease of random coil content and simultaneous increase in the concentration of α helix and β-sheet. At room temperature this trend is observed already after ˜2 days. Using the ATR-FTIR technique, the embedment of calcitonin into the aqueous channels of HII mesophase was explored, indicating a significant improvement in the stability of the peptide (FIGS. 32a-c). […] Therefore, the opposite tendency of calcitonin stabilization in the hexagonal phase was detected, as compared to a water solution. Only after 27 days, the peptide stability decreased, as reflected by the decrease of the random coil content."}, "[7]": {"test": "In vivo oral delivery of calcitonin in rats, plasma calcium levels", "design": "species or system Sprague-Dawley rats", "settings": "calcitonin solubilized in hexagonal liquid crystals and/or hexosomes", "experimental": "Male Sprague-Dawley rats (Orient Bio Inc, Korea), 7- to 8-weeks old, weighing 250-310 g, were used in the experiments. Animals were housed under a 12-h light-dark cycle, with food and water ad libitum. All animal handling was in accordance with the guidelines of Animal Care and Use Committee of the Korean Institute of Science and Technology.\nThe technique of cannulation of the jugular vein and arterial has been developed to allow serial blood sampling from an animal. After anesthesia with 0.4 ml/kg of intraperitoneally administered Rumpun/Zoletile [1:2 (v/v)], an incision was made in the skin just above the right clavicle. After preparation of the jugular vein, it was ligated at the distal side. A cannula filled with heparinized normal saline (10 units/ml) was inserted until the tip reached into the right atrium. Arterial cannulation was performed according to the same methods. […]\nCalcium concentration at time zero was normalized as the reference level. […] The calcium level in plasma sample was determined using a commercial Calcium Colorimetric Assay Kit (K380-250, Biovision, Mountain View, Calif., USA). In short, plasma calcium was treated with o-cresolphthalein to form a purple colored complex which was measured at 575 nm. […]"}, "[8]": {"settings": "water solution, after urea denaturation (starting from 2M urea)"}, "[9]": {"settings": "water solution, before the urea-induced decrease"}}}
{"molecule": "NC(=O)CC[C@@H]1NC(=O)[C@H](Cc2ccccc2)NC(=O)[C@H](Cc2ccc(O)cc2)NC(=O)CCSSC[C@@H](C(=O)N2CCC[C@H]2C(=O)N[C@H](CCCN=C(N)N)C(=O)NCC(N)=O)NC(=O)[C@H](CC(N)=O)NC1=O", "note": "[desmopressin]", "values": [{"measurement": "permeability coefficients through the skin", "setting": "[1]", "value": "reduced"}, {"measurement": "release via the HII mesophase", "setting": "[1]", "value": "sustained release"}, {"measurement": "steady-state flux", "setting": "[1]", "value": "reduced"}]}
{"molecule": "LSZ: hydrophilic protein (14.4 KDa) used as model protein solubilized in the HII mesophase", "values": [{"measurement": "secondary structure on incorporation into hexagonal phase", "setting": "[2]; HII mesophase, pH 1.5 to 6", "value": "no modifications"}, {"measurement": "random coil structure content", "setting": "[2]; LSZ solution in D2O, pH 1.5", "value": 0.22}, {"measurement": "α-helix content", "setting": "[2]; LSZ solution in D2O, pH 1.5", "value": 0.78}, {"measurement": "random coil structure content", "setting": "[2]; LSZ solution in D2O, pH 11.14", "value": 0.4}, {"measurement": "random coil content within HII mesophases compared to D2O", "setting": "[2]; pH from 6 to 11", "value": "lower"}, {"measurement": "α-helix content within HII mesophases compared to D2O", "setting": "[2]; pH from 6 to 11", "value": "considerably higher"}, {"measurement": "β-sheet content within HII mesophase compared to water solution", "setting": "[3]; urea", "value": "significantly lower"}, {"measurement": "random coil content", "setting": "[3]; [8]", "value": 0.03}, {"measurement": "α-helix content", "setting": "[3]; [8]", "value": 0.21}, {"measurement": "random coil content", "setting": "[3]; [9]", "value": 0.27}, {"measurement": "α-helix content", "setting": "[3]; [9]", "value": 0.73}, {"measurement": "random coil content", "setting": "[3]; water solution, urea (comparison with HII)", "value": 0.06}, {"measurement": "β-sheet content", "setting": "[3]; water solution, urea denaturation", "value": "up to 0.69"}, {"measurement": "random coil content", "setting": "[3]; within the HII mesophase, urea", "value": 0.18}, {"measurement": "urea concentration up to which α-helical conformation stayed intact", "setting": "[3]; within the hexagonal mesophase", "value": "up to 4 M"}, {"measurement": "temperature from which LSZ denaturation occurs", "setting": "[4]; D2O", "value": 63, "unit": "°C"}, {"measurement": "random coil content", "setting": "[4]; D2O, 60° C.", "value": "~0.3"}, {"measurement": "α-helix content", "setting": "[4]; D2O, 60° C.", "value": "~0.7"}, {"measurement": "random coil content", "setting": "[4]; D2O, 65° C.", "value": 0.62}, {"measurement": "α-helix content", "setting": "[4]; D2O, 65° C.", "value": 0.34}, {"measurement": "α-helix content", "setting": "[4]; LSZ loaded HII mesophase, 60° C.", "value": "~0.7"}, {"measurement": "γ-turn content", "setting": "[4]; LSZ loaded HII mesophase, 63-65° C.", "value": 0.1}, {"measurement": "α-helix content", "setting": "[4]; LSZ loaded HII mesophase, 65° C.", "value": 0.61}, {"measurement": "γ-turn content", "setting": "[4]; LSZ loaded HII mesophase, before 63-65° C.", "value": 0}, {"measurement": "random coil content", "setting": "[4]; LSZ loaded HII mesophase, between 63-65° C.", "value": "preserved"}, {"measurement": "time in which the bulk of the release occurred", "setting": "[5]", "value": "a week"}]}
{"molecule": "calcitonin", "values": [{"measurement": "random coil structure content", "setting": "[6]; in HII mesophase, pH 3 and 5, 27th day", "value": "~100", "unit": "%"}, {"measurement": "content of α helix and β-sheet forms as a function of time", "setting": "[6]; in HII mesophase, pH 3 to 9", "value": "drastically decreased"}, {"measurement": "time after which the peptide stability decreased", "setting": "[6]; in reverse hexagonal phase", "value": 27, "unit": "days"}, {"measurement": "time for which sCT conformational stability is maintained", "setting": "[6]; solubilized within hexagonal mesophases", "value": "more than 20 days"}, {"measurement": "plasma levels of calcium", "setting": "[7]", "value": "significantly reduced"}]}
{"molecule": "cytochrome C: intermediate sized protein released from cubic phase [reference compound]", "values": [{"measurement": "time in which the bulk of the release occurred", "setting": "[5]", "value": "a week"}]}
{"molecule": "B1", "values": [{"measurement": "time in which the bulk of the release occurred", "setting": "[5]", "value": "a week"}]}
